Results published in patent US6716624B2, “GSK3 polypeptides” (Chiron Corporation, priority 2000, dated 2004).

Legend:
[1] = system: prephosphorylated SGSG-linked CREB peptide; assay: Kinase specific activity of truncated GSK3β polypeptides (P81 filter assay); assay type: biochemical; conditions: 5.9 μM CREB peptide, 25 μM ATP, 20 min at room temperature
Procedure: A reaction mixture was prepared containing 5.9 μM prephosphorylated SGSG-linked CREB peptide (Wang et al., Anal. Biochem., 220:397-402 (1994))μ in reaction buffer (5 mM Tris, pH 7.5, 5 mM DTT; 1 mM MgCl2, 0.01% BSA) containing the desired amount of truncated GSK3 polypeptide. ATP was added (specific activity 5.3 Ci/mmol) to 25 μM final concentration and the mixture was incubated for 20 min. at room temperature. The reaction was stopped by transferring 30 μl onto a P81 filter disc (Whatman). The disc was washed four times in 150 ml of 75 mM H3PO4 for 5 minute each. The filter was air dried and counted under 5 ml scintillation fluid. The specific activity was counted by determining the ratio of counts (in cpm) by the mass of GSK3 in the reaction (in μg).

[2] = Concentration of the protein stock (solubility of the construct); assay type: physicochemical; conditions: concentrated protein stock
Procedure: The GSK3 constructs of the invention are capable of crystallization. […] Potential to crystallize is measured using a variety of assays including specific activity, aggregation, microheterogeneity. (See, for example, Table 1). These parameters are indicative of the purity of the preparation and of the solubility of the construct. The specific activity is also a preferred assay for detecting binding of an inhibitor to the correct binding site of the GSK3 construct. Another suitable method is fluorescence polarization. Briefly, a putative inhibitor, with an attached fluorophore, tumbles freely in solution. Thus when the fluorophore is excited by polarized light, the emitted light which is produced after a finite delay now has random polarity and the emitted light is no longer polarized. In the presence of a GSK3 construct with an intact inhibitor binding site, the tumbling rate is slowed sufficiently to ensure that, even though the light emission is delayed with respect to the excitation, the fluorophore has only moved very slightly. Thus, the excited light maintains polarization. A measurement of fluorescence polarization therefore indicates whether or not the GSK3 construct is suitable for identifying and optimizing an inhibitor. […] GSK3 constructs may not retain kinase activity, but their inhibitor binding can still be assessed using fluorescence polarization assays. […]

[3] = Aggregation of the purified construct on storage; assay type: physicochemical
Procedure: The GSK3 constructs of the invention are capable of crystallization. […] Potential to crystallize is measured using a variety of assays including specific activity, aggregation, microheterogeneity. (See, for example, Table 1). These parameters are indicative of the purity of the preparation and of the solubility of the construct. The specific activity is also a preferred assay for detecting binding of an inhibitor to the correct binding site of the GSK3 construct. Another suitable method is fluorescence polarization. Briefly, a putative inhibitor, with an attached fluorophore, tumbles freely in solution. Thus when the fluorophore is excited by polarized light, the emitted light which is produced after a finite delay now has random polarity and the emitted light is no longer polarized. […] A measurement of fluorescence polarization therefore indicates whether or not the GSK3 construct is suitable for identifying and optimizing an inhibitor. […] GSK3 constructs may not retain kinase activity, but their inhibitor binding can still be assessed using fluorescence polarization assays.
A truncated GSK3 polypeptide of the invention can be selected on the basis of one or more parameters. […] The potential of a polypeptide to form crystals can be evaluated on the basis of specific activity, purity, homogeneity, mass spectrometry, aggregation, and dynamic light scattering. […]

## Construct 557: Truncated human GSK3β, M1 to I384, with N-terminal Glu-tag and Gly linker (SEQ ID NO:2)
[1]; mean of N assays
  Mean Specific Activity: 4.3 × 10^7 cpm/μg
[1]; stated in the text
  specific activity: 4.3×10^7 cpm/μg
[2]
  Concentration: 12700 µg/mL
[3]; 4 degrees, > 2 weeks
  Aggregation at 4 Degrees: none @ > 2
[3]; room temperature, time at which aggregation occurs
  Aggregation at RT: overnight
